Experimental data reported in article PMC8991256.

Biological target: LH1–RC core complex, monomeric component of the native dimer (Rhodobacter sphaeroides f. sp. denitrificans strain IL106 (endogenous)) (UniProt Q3J1A4)
Experiment: cryo-EM structure; native dimeric LH1–RC from Rba. sphaeroides IL106 in DDM, ~5 mg/ml; C1 symmetry, 2.75 Å

stoichiometry N: 2
Substance: LH1–RC core complex, monomeric component of the native dimer (from UniProt Q3J1A4 1-58; Q3J1A3 1-49; P0C0Y8 1-282; P0C0Y9 1-308; P0C0Y7 1-260; P13402 1-82)
